Experimental data as given in paper PMC6565677, “Kistamicin biosynthesis reveals the biosynthetic requirements for production of highly crosslinked glycopeptide antibiotics” (Nature Communications, 2019).

B1: Xkis-domain, standalone X-domain of the kistamicin NRPS (residues 1024-1493) (domain or fragment, UniProt A0A1V0AGC2 1024-1493, looked up)
chain: RPVLGPGRRADLDPDGPLPVTARQRRMWLLSRIGDEAEGLHVRVALRLRGRLDRDALAGALADVGGRHEILRTRFPGSRRDVRQEILDAETGRPPLEICPATEDELPGLLADRAGRPFDLTGEVPWRAHLFPLTDREQVLLVVAHRIAADEESVDVLVRDLAAAYGARREGRIPERAPLALQFADYALWERELLAGADERDSLIWDQIEFWRDRLAGGDDEHADTSAPPAGRARPVLPSRRAGSVPLRLPADSHARLLEAARSAGGTMFTAVHAALAMLLSRLDGRTSVTIGTRLPRDEEQTGLVPMVGPFSRWLALPVDLSGDPAFTEILGRARDVSEDAHRHQDLPFERLAELVVPVPSITRHPIFQVALQLDEDDVRPEESWALPGLRTSPVPMPEEAMELDLWLKLLDHRTDEGDADGLVGSLVYAEDRFDRAGAEALAQRLVALLEQVGAAPEVRLSQVDVPGSE
notes: X-domain (Oxy-recruiting domain) of the last module of the kistamicin NRPS, residues 1024-1493 of UniProt A0A1V0AGC2; Unlabelled form used for ITC and crystallisation; also called standalone Xkis domain; source: E. coli ArcticExpress, expressed as MBP fusion, purified (Ni-NTA, TEV cleavage, second Ni-NTA); not shown: His6, N-terminal, cleaved; MBP, N-terminal, cleaved
B2: OxyCkis (KisO), cytochrome P450 Oxy enzyme from kistamicin biosynthesis (enzyme, UniProt A0A1V0AGL8 1-426, looked up)
chain: MTDVTPGFVVDEATQVVTPEPDFIITRKHLEPTDSLRALRKRGALLKINGHALGSLDVDGTAYIWLATGYEVVRRILGDHENFSTRRRLTAGEPIDGTGVTPVKELVGHLMNLDPPEHTRLRRMLTPEFTLRRIRRLEPVISEIIEDHLNLIEDAGPPADLQSMYAEPVGGATLCELIGVPRDDRAEFLRRCGLHLDMSRGSKRRAADSMAFNGYLDHLIGLQRKRPDDGFIGMLVQEHGDDVTDDELRGMITVVLLAGLDNISGMLGLGVLALLEHPEQIPVIFEERAVTDRAVDELTRYLSITFQPTPRMALNDVVVDGQTIKAGEIVVCSLPMANRDEALTPDPDVLDLRRQLAGHVGFGHGVHHCLGSSVSRVVLRLAYQALWRRFPDLRLAVPPEDIVFRKAITHGPKRLPVTWGPSAATR
notes: OxyCkis (KisO), cytochrome P450 from the kistamicin gene cluster of Actinomadura parvosata subsp. kistnae; synthetic codon-optimised gene in pET28a; Heme protein; also called kistamicin OxyC; source: E. coli ArcticExpress, purified (Ni-NTA, anion exchange, size exclusion)
B3: OxyAkis (KisN), cytochrome P450 Oxy enzyme from kistamicin biosynthesis (enzyme)
chain: MVAPEHRVLHLRDRLDLAAELKLLCERGPLVRIPLEDGSAVHWFALGYDVVREVLGSEKFDKRVIGTHFNHQEMALPGNLLQLDPPEHTRLRRMVAPAYSVRRMQALEPRVQAIVDDHLDTMASTGPPVEFLREVAGPMAARVACEFLGIPLDDRGELIRLTAHRGGKRRRVLNGHAYLAYMRELAARLRRDPGDGMLGMVARDHGADISDEELAGLCAVVMNSSVEQTESCLAAGTLLLLEHPEQFALLRERPELGEQAVEEIVRYLSVFEGLDPRTATEDVEIGGQVIKKGEAVFCSLLAANRADPALDGFDITRKESRHVAFGHGIHHCLGAPLARMELRIAFTTLVSRFPSLRTAVPAEEIRFRPPSSNVFTLLELPLTW
notes: OxyAkis (KisN), cytochrome P450 from the kistamicin gene cluster of Actinomadura parvosata subsp. kistnae; synthetic codon-optimised gene in pET28a; Heme protein; also called kistamicin OxyA; source: E. coli ArcticExpress, purified (Ni-NTA, anion exchange, size exclusion)

Tests used:
Assay in all cases: ITC; 1.27 mM X-domain injected into 300-400 µM OxyA/OxyC; 25 °C, stirring 300 rpm; 50 mM phosphate pH 7.4, 150 mM NaCl, 5% v/v glycerol; single binding site model; single titration (n = 1)
Settings in all cases: both partners purified
[1] = molecular target: B3
[2] = molecular target: B2
[3] = molecular target: B1

| Binder | stoichiometry N [1] | stoichiometry N [2] | Kd [3] |
| --- | --- | --- | --- |
| B1 | 1 | 1 |  |
| B2 |  |  | 6.1 µM |
| B3 |  |  | 10.4 µM |
